Test results reported in paper PMC3070748.

Molecular target: Gemin7 BiFC construct (UniProt Q9H840)
Assay: split reporter

UniProt Q9H840, sequence (Q9H840 whole entry): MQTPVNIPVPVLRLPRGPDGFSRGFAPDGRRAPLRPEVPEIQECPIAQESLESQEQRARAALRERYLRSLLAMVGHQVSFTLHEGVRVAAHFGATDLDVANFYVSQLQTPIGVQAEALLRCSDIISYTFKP

percent of BiFC-positive cells: 56%
Substance: murine Unrip fused to a Venus fragment (BiFC construct) (from UniProt Q9Z1Z2 1-350) (natural protein)
